Laboratory results taken from US20110206616A1.

Target: SNAP 25 (endogenous, rat neuronal cells) (rat) (UniProt P60881)
Experiment: cell-based or functional assay

UniProt P60881, sequence (P60881 whole entry): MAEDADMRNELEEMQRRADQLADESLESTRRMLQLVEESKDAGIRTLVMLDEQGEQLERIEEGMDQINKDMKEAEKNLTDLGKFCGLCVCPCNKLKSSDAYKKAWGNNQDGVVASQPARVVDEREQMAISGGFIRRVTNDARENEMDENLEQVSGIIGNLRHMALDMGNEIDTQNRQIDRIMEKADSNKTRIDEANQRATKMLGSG

BoNT/Aad^ek, AcTEV- and enterokinase-processed disulfide-bonded LC-HC heterodimer (from UniProt P0DPI1 2-449; P0DPI0 449-1296)
cleavage of intracellular SNAP 25 (none detectable at the concentration tested): 500 nM
